US20140121131A1 (AFFINITY BIOSCIENCES, published 2014)

Assays:
biotinylated His6-GFP [1] = biological target: T1, biotinylated His6-GFP (UniProt P42212 1-238 = GFP); assay: phage capture on streptavidin Dynal beads labelled with biotinylated His6-GFP; fusion protein not induced; reference is Hy5 phage with wild-type gpL
T1 construct: Held on streptavidin magnetic particles or Dynal beads; also called biotinylated eGFP; Biotin-labeled eGFP; not shown: His6 tag

biotinylated His6-GFP [2] = biological target: T1, biotinylated His6-GFP; assay: phage capture on streptavidin Dynal beads labelled with biotinylated His6-GFP; fusion protein induced with arabinose; reference is Hy5 phage with wild-type gpL

B1: αGFP::I27::gpL fusion protein (VHH)
chain: MGDGMQVQLVESGGALVQPGGSLRLSCAASGFPVNRYSMRWYRQAPGKEREWVAGMSSAGDRSSYEDSVKGRFTISRDDARNTVYLQMNSLKPEDTAVYYSNVNVGFEYWGQGTQVTVSSNSSSQTSLIEVEKPLYGVEVFVGETAHFEIELSEPDVHGQWKLKGQPLTASPDCEIIEDGKKHILILHNCQLGMTGEVSFQAANAKSAANLKVKELNSSSDYKDDDDKGNGTLIIPRKEAPVSGEGTVVIPQPAGDEPVIKNTFFFPDIDPKRVRERMRLEQTVAPARLREAIKSGMAETNAELYEYREQKIAAGFTRLADVPADDIDGESIKVFYYERAVCAMATASLYERYRGVDASAKGDKKADSIDSTIDELWRDMRWAVARIQGKPRCIVSQI
notes: also called Hy5 + αGFP:I27:gpL; gpL capsid fusion protein
- Enrichment (fold over Hy5) (biotinylated His6-GFP [1]): 6.5 fold over Hy5
- Enrichment (fold over Hy5) (biotinylated His6-GFP [2]): 82 fold over Hy5
